Assay results: patent publication US20250295687A1, “TREM COMPOSITIONS AND METHODS OF USE FOR TREATING PROLIFERATIVE DISORDERS” (Flagship Pioneering Innovations VI, LLC, priority 2022, published 2025)

What was measured:
[1] = tested on: nonsense mutation in TP53 (R196X; Arg→TGA) in Calu-6 lung carcinoma cells; assay: Western blot of full-length p53 after PTC readthrough in Calu-6 cells (Example 6); assay type: cell-based; conditions: for PTC suppression / production of full-length p53 protein: 48 hours, Western blotting (FIGS. 1-3)
Method: Calu-6 is a lung cancer cell line known to harbor a nonsense mutation in TP53 (R196X; Arg→TGA) that results in a premature termination codon (PTC). To test PTC readthrough of the TREM, cells were treated with Arg-TGA, Ser-TGA, or Ser-TAG TREMs or with known translational read-through inducing drugs (RIDs).
(§1) To monitor the ability of the TREMs to readthrough the PTC mutation, the expression of TP53 was assessed by Western blotting 48 hours post-TREM delivery into the cells. Cells were washed once with phosphate buffered saline (PBS) and lysed with 100 uL of RIPA buffer (50 mM Tris, pH 8.0, 150 mM NaCl, 1% Nonidet-P40 (NP-40), 0.5% Deoxycholate, 0.1% sodium dodecyl sulfate (SDS)) supplemented with protease inhibitor, for 30 min at 4° C. The protein extracts were then centrifuged at 21,000 g for 15 min and the supernatant was transferred into clean tubes. Protein concentration was determined using a BCA Protein Assay Kit according to the manufacturer's instructions. 20 μg of total protein were loaded into an SDS-PAGE gel and transferred onto nitrocellulose membranes after electrophoresis. The membranes were probed with anti-p53, anti-p21, and anti-β-tubulin antibodies.

[2] = tested on: p21 (downstream transcriptional target of p53) in Calu-6 cells; assay: Western blot of p21 protein levels in Calu-6 cells (p53 functional rescue); assay type: cell-based
Method: Calu-6 is a lung cancer cell line known to harbor a nonsense mutation in TP53 (R196X; Arg→TGA) that results in a premature termination codon (PTC). To test PTC readthrough of the TREM, cells were treated with Arg-TGA, Ser-TGA, or Ser-TAG TREMs or with known translational read-through inducing drugs (RIDs). Briefly, 6×10^5 cells were seeded into a 6-well plate and transfected with […] of TREM in 15 uL of RNAiMAX+800 uL OptiMEM; 0.5 or 5 mg/mL G418, an aminoglycoside antibiotic; or Ataluren, a TRID that is approved for the treatment of DMD in Europe at the reported maximally effective dose of 10 uM.
as §1
To determine whether the rescued p53 protein was functional, cellular p21 protein levels were measured (FIG. 4). p21 is a downstream transcriptional target and well-established biomarker of p53 activity.

NanoLuc with a TGA PTC = assay: In vivo PTC readthrough of NanoLuc TGA reporter by hydrodynamic gene delivery (FIG. 5B); set-up: species or system mouse
Method: Hydrodynamic gene delivery (HGD) is a simple, fast, safe, and effective method for delivering transgenes in rodent models. A set of plasmids expressing both an eGFP-Luc-TGA reporter and a TREM were designed. To evaluate tolerability and determine optimal plasmid concentration for maximum TREM delivery to the liver, the eGFP-WT Luc plasmid was administered to adult CD-1 mice via tail vein hydrodynamic injection at three doses: 10 μg, 30 μg, and 50 μg. […] Next, 50 μg of DNA in saline […] was administered to mice via tail vein hydrodynamic injection to assess target engagement and PTC readthrough using either 1) eGFP-Nluc TGA reporter plasmid (PL-854), or 2) eGFP-Nluc WT reporter (PL1202), or 3) all-in-one plasmid eGFP-Nluc-TGA reporter with S-TAG (PL-1216), or 4) all-in-one plasmid eGFP-Nluc-TGA reporter with R-TGA (PL-1215).

Molecule: CN[C@@H]1[C@@H](O)[C@@H](O[C@@H]2[C@@H](O)[C@H](O[C@H]3O[C@H]([C@@H](C)O)[C@@H](O)[C@H](O)[C@H]3N)[C@@H](N)C[C@H]2N)OC[C@]1(C)O [G418, reference compound]
- rescue of TP53 mRNA levels / expression of truncated p53 protein ([1]; Calu-6 cells): more effective in rescuing mRNA levels
- percentage of full-length p53 out of the total p53 protein ([1]; Calu-6 cells treated with 0.5 mg/mL): about 30%
- percentage of full-length p53 out of the total p53 protein ([1]; Calu-6 cells treated with 5 mg/mL): about 30%
- PTC suppression / production of full-length p53 protein ([1]; Calu-6 cells): marginally increased

Molecule: O=C(O)c1cccc(-c2noc(-c3ccccc3F)n2)c1 [Ataluren, reference compound]
- percentage of full-length p53 out of the total p53 protein ([1]; Calu-6 cells treated with 10 μM): about 0%
- PTC suppression / production of full-length p53 protein ([1]; Calu-6 cells): ineffective

B1: Arg-TGA: arginine non-cognate TREM: sequence of ARG-UCU-TREM body but with anticodon UCA instead of UCU (nucleic acid)
chain: GGCUCCGUGGCGCAAUGGAUAGCGCAUUGGACUUCAAAUUCAAAGGUUCCGGGUUCGAGUCCCGGCGGAGUCGCCA
modifications: listed as RNA, chemistry not fully specified
- percentage of full-length p53 of the total p53 protein ([1]; Calu-6 cells treated with 100 nM): about 95%
- full-length p53 levels increase relative to cells treated with SEQ ID NO:623 ([1]; Calu-6 cells, 100 nM TREM, vs 100 nM SEQ ID NO:623): about 55 fold
- full-length p53 levels increase relative to cells treated with SEQ ID NO:625 ([1]; Calu-6 cells, 100 nM TREM, vs 100 nM SEQ ID NO:625): about 11 fold
- full-length p53 levels increase relative to cells treated with Ataluren ([1]; Calu-6 cells, 100 nM TREM, vs 10 μM Ataluren): about 55 fold
- full-length p53 levels increase relative to cells treated with 0.5 mg/mL G418 ([1]; Calu-6 cells, 100 nM TREM, vs 0.5 mg/mL G418): about 55 fold
- full-length p53 levels increase relative to cells treated with 5 mg/mL G418 ([1]; Calu-6 cells, 100 nM TREM, vs 5 mg/mL G418): about 14 fold
- full-length p53 levels increase relative to mock-transfected cells ([1]; Calu-6 cells, 100 nM TREM, vs mock-transfected cells): about 55 fold
- full-length p53 levels increase relative to untreated cells ([1]; Calu-6 cells, 100 nM TREM, vs untreated cells): about 55 fold
- total p53 that was full length (FIG. 3) ([1]; Calu-6 cells, 48 hours post-TREM delivery, Western blotting): about 90%
- PTC suppression / production of full-length p53 protein ([1]; Calu-6 cells): robustly induce PTC suppression
- p21 levels increase relative to cells treated with SEQ ID NO:623 ([2]; 100 nM TREM, vs 100 nM SEQ ID NO:623): about 60 fold
- p21 levels increase relative to cells treated with SEQ ID NO:625 ([2]; 100 nM TREM, vs 100 nM SEQ ID NO:625): about 30 fold
- p21 levels increase relative to cells treated with Ataluren ([2]; 100 nM TREM, vs 10 μM Ataluren): about 60 fold
- p21 levels increase relative to cells treated with 0.5 mg/mL G418 ([2]; 100 nM TREM, vs 0.5 mg/mL G418): about 60 fold
- p21 levels increase relative to cells treated with 5 mg/mL G418 ([2]; 100 nM TREM, vs 5 mg/mL G418): about 60 fold
- p21 levels increase relative to mock-transfected cells ([2]; 100 nM TREM, vs mock-transfected cells): about 60 fold
- p21 levels increase relative to untreated cells ([2]; 100 nM TREM, vs untreated cells): about 60 fold
- rescue of cellular p21 protein levels (FIG. 4) ([2]; Western blotting): able to rescue p21 protein levels
- increase in luciferase signal compared to controls (NanoLuc with a TGA PTC; mice, 50 μg of DNA in saline, tail vein hydrodynamic injection, all-in-one plasmid eGFP-Nluc-TGA reporter (FIG. 5B)): ~1000 fold
- total flux signal in the liver (NanoLuc with a TGA PTC; mouse, hydrodynamic delivery of plasmid (FIG. 5B)): about 2×10^9 p/s
